# B1: human chymotrypsin C (CTRC): N52S (protein)
# parent chain: MLGITVLAALLACASSCGVPSFPPNLSARVVGGEDARPHSWPWQISLQYLKNDTWRHTCGGTLIASNFVLTAAHCISNTRTYRVAVGKNNLEVEDEEGSLFVGVDTIHVHKRWNALLLRNDIALIKLAEHVELSDTIQVACLPEKDSLLPKDYPCYVTGWGRLWTNGPIADKLQQGLQPVVDHATCSRIDWWGFRVKKTMVCAGGDGVISACNGDSGGPLNCQLENGSWEVFGIVSFGSRRGCNTRKKPVVYTRVSAYIDWINEKMQL
# B2: rat CTRC: N90S (protein)
# parent chain: MLGITVLAAILACASCCGNPAFPPNLSTRVVGGEDAVPNSWPWQVSLQYLKDDTWRHTCGGSLITTSHVLTAAHCINKDFTYRVGLGKYNLTVEDEEGSVYAEVDTIYVHEKWNRLFLWNDIAIIKLAEPVELSNTIQVACIPEEGSLLPQDYPCYVTGWGRLWTNGPIAEVLQQGLQPIVSHATCSRLDWWFIKVRKTMVCAGGDGVISACNGDSGGPLNCQAEDGSWQVHGIVSFGSSSGCNVHKKPVVFTRVSAYNDWINEKIQL
# B3: bovine CTRC: E92T (protein)
# parent chain: MLGITVFTTFLAYASSCGAPIFQPNLSARVVGGEDAIPHSWPWQISLQYLRDNTWRHTCGGTLITPNHVLTAAHCISNTLTYRVALGKNNLEVEDEAGSLYVGVDTIFVHEKWNSFLVRNDIALIKLAETVELSDTIQVACLPEEGSLLPQDYPCFVTGWGRLYTNGPIAAELQQGLQPVVDYATCSQRDWWGTTVKETMVCAGGDGVISACNGDSGGPLNCQAENGNWDVRGIVSFGSGLSCNTFKKPTVFTRVSAYIDWINQKLQL
# Legend:
# [1] = molecular target: human chymotrypsin C (CTRC), wild type, active enzyme (human) (UniProt Q99895); assay: equilibrium inhibitor binding assay
# [2] = molecular target: human chymotrypsin C (CTRC) mutant N52S, active enzyme (human) (UniProt Q99895); assay: equilibrium inhibitor binding assay
# [3] = trypsin-induced mobility shift on reducing SDS-PAGE; details: glycan lost; control: wild type
# [4] = steady-state kinetics, purified CTRC; details: glycan lost; control: wild type (HEK 293T)
# [5] = Leu81-Glu82 cleavage time course, SDS-PAGE; details: glycan lost; control: wild type (HEK 293T)
# [6] = casein digestion time course, SDS-PAGE; details: glycan lost; control: wild type (HEK 293T)
# [7] = active site titration of media with SGPI-2; details: glycan lost; control: wild type
# [8] = CTRC activity of HEK 293T conditioned media; details: glycan gained; control: wild type
molecule,measurement,setting,value
Schistocerca gregaria proteinase inhibitor-2 (SGPI-2) (natural protein),Kd,[1],3.9 nM
same,Kd,[2],2.7 nM
B1,other: proteolytic processing,[3],no change
same,"enzymatic_activity, kcat_Km",[4],"no change, 1.2 × 106 vs 1.2 × 106"
same,enzymatic_activity,[5],no change
same,enzymatic_activity,[6],no change
B2,"expression_or_secretion, other: concentration in medium",[7],"decreases, 62.4 vs 175"
B3,"expression_or_secretion, fold_change",[8],no change

# From PMC3209518
